Patent publication US20250250360A1 (CCBIOTECH, published 2025)

Molecular target: T1, sulfatase 1 (SULF1) antigen
T1 construct: also called antigen peptide
T1 peptide: CNPRPKNLDVGNKDGGSYD
Assay: indirect ELISA, antigen coated on plate, HRP-labeled secondary antibody, A450 nm
Description: This embodiment is directed to two antibodies (anti-GALNS specific antibody and anti-SULF1 specific antibody) and analyzes their specificity to the target proteins under different concentrations of antigen. The indirect ELISA detection method was used to conduct antibody specificity analysis, compare the specificity performance of antibodies to different concentrations of antigens, and BSA was used as the background control group for evaluation. The antigen was coated on a 96-well ELISA plate, the test antibody and the HRP-labeled secondary antibody were added for reaction, and the absorbance value was measured using a 450 nm wavelength microplate reader.

B1: anti-sulfatase 1 (SULF1) specific antibody (antibody, V domains shown)
VH: EVKLQESGAELVKPGASVKMSCKASGYTFTSYWMHWVKQRPGQGLEWIGTIDPSDSYTSYNQKFKGKATLTVDTSSSTAYMQLSSLTSEDSAVYYCTRGEYGNAMDYWGQGTSVTVSS
VL: DIVLTQTPSYLAASPGETITINCRASKSISKYLAWYQEKPGKTNKLLIYSGSTLQSGIPSRFSGSGSGTDFTLTISSLEPEDFAMYYCQQHNEYPYTFGGGTKLEIKR
notes: also called anti-SULF1 specific antibody; anti-Sulf1 specific antibody
binding result: binds
